# Experimental data reported in patent US6987089.
# B1: ASK1-Flag (expressed from pcDNA3-ASK1-Flag in 293 cells, immunoprecipitated with anti-Flag) (protein)
# chain: MSTEADEGITFSVPPFAPSGFCTIPEGGICRRGGAAAVGEGEEHQLPPPPPGSFWNVESAAAPGIGCPAATSSSSATRGRGSSVGGGSRRTTVAYVINEASQGQLVVAESEALQSLREACETVGATLETLHFGKLDFGETTVLDRFYNADIAVVEMSDAFRQPSLFYHLGVRESFSMANNIILYCDTNSDSLQSLKEIICQKNTMCTGNYTFVPYMITPHNKVYCCDSSFMKGLTELMQPNFELLLGPICLPLVDRFIQLLKVAQASSSQYFRESILNDIRKARNLYTGKELAAELARIRQRVDNIEVLTADIVINLLLSYRDIQDYDSIVKLVETLEKLPTFDLASHHHVKFHYAFALNRRNLPGDRAKALDIMIPMVQSEGQVASDMYCLVGRIYKDMFLDSNFTDTESRDHGASWFKKAFESEPTLQSGINYAVLLLAAGHQFESSFELRKVGVKLSSLLGKKGNLEKLQSYWEVGFFLGASVLANDHMRVIQASEKLFKLKTPAWYLKSIVETILIYKHFVKLTTEQPVAKQELVDFWMDFLVEATKTDVTVVRFPVLILEPTKIYQPSYLSINNEVEEKTISIWHVLPDDKKGIHEWNFSASSVRGVSISKFEERCCFLYVLHNSDDFQIYFCTELHCKKFFEMVNTITEEKGRSTEEGDCESDLLEYDYEYDENGDRVVLGKGTYGIVYAGRDLSNQVRIAIKEIPERDSRYSQPLHEEIALHKHLKHKNIVQYLGSFSENGFIKIFMEQVPGGSLSALLRSKWGPLKDNEQTIGFYTKQILEGLKYLHDNQIVHRDIKGDNVLINTYSGVLKISDFGTSKRLAGINPCTETFTGTLQYMAPEIIDKGPRGYGKAADIWSLGCTIIEMATGKPPFYELGEPQAAMFKVGMFKVHPEIPESMSAEAKAFILKCFEPDPDKRACANDLLVDEFLKVSSKKKKTQPKLSALSAGSNEYLRSISLPVPVLVEDTSSSSEYGSVSPDTELKVDPFSFKTRAKSCGERDVKGIRTLFLGIPDENFEDHSAPPSPEEKDSGFFMLRKDSERRATLHRILTEDQDKIVRNLMESLAQGAEEPKLKWEHITTLIASLREFVRSTDRKIIATTLSKLKLELDFDSHGISQVQVVLFGFQDAVNKVLRNHNIKPHWMFALDSIIRKAVQTAITILVPELRPHFSLASESDTADQEDLDVEDDHEEQPSNQTVRRPQAVIEDAVATSGVSTLSSTVSHDSQSAHRSLNVQLGRMKIETNRLLEELVRKEKELQALLHRAIEEKDQEIKHLKLKSQPIEIPELPVFHLNSSGTNTEDSELTDWLRVNGADEDTISRFLAEDYTLLDVLYYVTRDDLKCLRLRGGMLCTLWKAIIDFRNKQT
# Biological target: T1, His-CIA recombinant protein (His6-tagged mouse CIA)
# T1 chain: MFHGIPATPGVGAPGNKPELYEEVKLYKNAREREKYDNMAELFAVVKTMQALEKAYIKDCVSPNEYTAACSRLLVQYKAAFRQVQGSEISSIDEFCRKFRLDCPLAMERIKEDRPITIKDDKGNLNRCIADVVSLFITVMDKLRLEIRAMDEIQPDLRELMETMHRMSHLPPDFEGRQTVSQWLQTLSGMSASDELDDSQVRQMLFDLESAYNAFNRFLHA
protein,measurement,value
B1,phosphorylation of GST-MKK6 (K82A) by immunoprecipitated ASK1 (immunocomplex kinase assay),"The presence of the HIS-CIA recombinant protein, however, lowered the kinase activity of ASK1, which had been activated by the UV irradiation, resulting in a significant decrease in the phosphorylation of GST-MKK6"
